According to article PMC7087056 (The Yale Journal of Biology and Medicine, 2020):

Biological target: T1, His6-K10^C401A-2B (human keratin 10 helix 2B domain with C401A, His6 tag kept) (human, UniProt P13645 337-456, C401A)
T1 sequence (looked up): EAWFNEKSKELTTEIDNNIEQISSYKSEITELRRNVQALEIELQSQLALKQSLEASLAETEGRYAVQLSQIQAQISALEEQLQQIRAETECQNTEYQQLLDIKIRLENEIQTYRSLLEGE
Test: pull-down

stoichiometry N: 1
B1: human keratin 1 helix 2B domain (K1-2B) (domain or fragment, UniProt P04264 370-489, looked up)
chain: ESLYQSKYEELQITAGRHGDSVRNSKIEISELNRVIQRLRSEIDNVKKQISNLQQSISDAEQRGENALKDAKNKLNDLEDALQQAKEDLARLLRDYQELMNTKLALDLEIATYRTLLEGE
